Reference: IntAct's records for PubMed 20618438

B1: Hereditary hemochromatosis protein (Homo sapiens), Q30201 (parent)
chain: MGPRARPALLLLMLLQTAVLQGRLLRSHSLHYLFMGASEQDLGLSLFEALGYVDDQLFVFYDHESRRVEPRTPWVSSRISSQMWLQLSQSLKGWDHMFTVDFWTIMENHNHSKESHTLQVILGCEMQEDNSTEGYWKYGYDGQDHLEFCPDTLDWRAAEPRAWPTKLEWERHKIRARQNRAYLERDCPAQLQQLLELGRGVLDQQVPPLVKVTHHVTSSVTTLRCRALNYYPQNITMKWLKDKQPMDAKEFEPKDVLPNGDGTYQGWITLAVPPGEEQRYTCQVEHPGLDQPLIVIWEPSPSGTLVIGVISGIAVFVVILFIGILFIILRKRQGSRGAMGHYVLAERE

Legend:
trfe_human TF, P02787 [1] = variants of: B1; details: with trfe_human TF
b2mg_human B2M, P61769 [2] = variants of: B1; details: with b2mg_human B2M
tfr1_human TFRC, P02786 = variants of: B1; details: with tfr1_human TFRC
trfe_human TF, P02787 [3] = variants of: B1; details: with trfe_human TF; remark: listed apart in the source
trfe_human TF, P02787 [4] = variants of: B1; details: with trfe_human TF; remark: listed apart in the source
trfe_human TF, P02787 [5] = variants of: B1; details: with trfe_human TF; remark: listed apart in the source
b2mg_human B2M, P61769 [6] = variants of: B1; details: with b2mg_human B2M; remark: listed apart in the source

Chain of b2mg_human B2M, P61769 (P61769 whole entry): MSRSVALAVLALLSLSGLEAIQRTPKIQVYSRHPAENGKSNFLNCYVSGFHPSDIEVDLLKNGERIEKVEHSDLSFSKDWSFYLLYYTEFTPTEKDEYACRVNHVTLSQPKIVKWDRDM
Chain of trfe_human TF, P02787 (P02787 whole entry): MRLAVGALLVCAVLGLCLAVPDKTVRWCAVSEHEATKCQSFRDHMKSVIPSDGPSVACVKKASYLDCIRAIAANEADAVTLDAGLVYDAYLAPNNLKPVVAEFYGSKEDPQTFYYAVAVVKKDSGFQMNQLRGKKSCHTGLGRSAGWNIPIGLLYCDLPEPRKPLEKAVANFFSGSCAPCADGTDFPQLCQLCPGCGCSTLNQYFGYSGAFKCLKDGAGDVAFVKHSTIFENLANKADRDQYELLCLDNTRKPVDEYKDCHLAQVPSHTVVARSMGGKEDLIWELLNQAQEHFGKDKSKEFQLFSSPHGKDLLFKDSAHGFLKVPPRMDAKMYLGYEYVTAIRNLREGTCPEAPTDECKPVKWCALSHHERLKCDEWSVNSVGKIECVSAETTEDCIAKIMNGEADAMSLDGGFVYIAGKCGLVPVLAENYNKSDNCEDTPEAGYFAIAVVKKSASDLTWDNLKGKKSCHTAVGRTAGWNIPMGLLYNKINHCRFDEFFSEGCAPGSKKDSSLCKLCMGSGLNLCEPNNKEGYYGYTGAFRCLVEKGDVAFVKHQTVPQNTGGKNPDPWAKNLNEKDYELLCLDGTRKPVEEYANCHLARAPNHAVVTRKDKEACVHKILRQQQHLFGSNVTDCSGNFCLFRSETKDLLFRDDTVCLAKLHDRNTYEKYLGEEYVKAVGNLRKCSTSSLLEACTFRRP
Chain of tfr1_human TFRC, P02786 (P02786 whole entry, looked up): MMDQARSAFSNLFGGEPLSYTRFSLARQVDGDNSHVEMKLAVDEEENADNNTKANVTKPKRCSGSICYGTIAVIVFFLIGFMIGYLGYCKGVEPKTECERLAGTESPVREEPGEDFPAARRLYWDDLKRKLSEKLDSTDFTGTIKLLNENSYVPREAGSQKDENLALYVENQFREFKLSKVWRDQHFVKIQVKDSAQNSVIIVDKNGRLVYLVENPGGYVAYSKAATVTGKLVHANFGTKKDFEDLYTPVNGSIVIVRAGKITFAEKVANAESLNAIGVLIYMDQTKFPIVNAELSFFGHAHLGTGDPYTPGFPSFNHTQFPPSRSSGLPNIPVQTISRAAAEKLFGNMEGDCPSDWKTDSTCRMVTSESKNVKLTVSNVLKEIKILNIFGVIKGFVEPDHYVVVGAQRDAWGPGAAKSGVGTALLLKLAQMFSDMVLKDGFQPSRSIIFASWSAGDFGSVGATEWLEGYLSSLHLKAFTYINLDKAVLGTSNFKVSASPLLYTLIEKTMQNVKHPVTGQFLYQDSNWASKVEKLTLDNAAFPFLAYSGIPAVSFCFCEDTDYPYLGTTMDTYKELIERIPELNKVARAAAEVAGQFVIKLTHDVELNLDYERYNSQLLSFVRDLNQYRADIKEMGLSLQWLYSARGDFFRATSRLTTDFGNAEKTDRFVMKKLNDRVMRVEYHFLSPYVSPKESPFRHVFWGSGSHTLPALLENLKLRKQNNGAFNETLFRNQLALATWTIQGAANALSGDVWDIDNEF

Row | Variant | effect of a mutation on the interaction (trfe_human TF, P02787 [1]) | effect of a mutation on the interaction (b2mg_human B2M, P61769 [2]) | effect of a mutation on the interaction (tfr1_human TFRC, P02786) | effect of a mutation on the interaction (trfe_human TF, P02787 [3]) | effect of a mutation on the interaction (trfe_human TF, P02787 [4]) | effect of a mutation on the interaction (trfe_human TF, P02787 [5]) | effect of a mutation on the interaction (b2mg_human B2M, P61769 [6])
1 | MGPRARPALLLLMLLQTAVLQGRLLRSHSLHYLFMGASEQDLGLSLFEALGYVDDQLFVFYDHESRRVEPRTPWVSSRISSQMWLQLSQSLKGWDHMFTVDFWTIMENHNHSKESHTLQVILGCEMQEDNSTEGYWKYGYDGQDHLEFCPDTLDWRAAEPRAWPTKLEWERHKIRARQNRAYLERDCPAQLQQLLELGRGVLDQQVPPLVKVTHHVTSSVTTLRCRALNYYPQAITMKWLKDKQPMDAKEFEPKDVLPNGDGTYQGWITLAVPPGEEQRYTCQVEHPGLDQPLIVIWEPSPSGTLVIGVISGIAVFVVILFIGILFIILRKRQGSRGAMGHYVLAERE [N234A] | decreasing interaction | disrupting interaction | – | – | – | – | –
2 | MGPRARPALLLLMLLQTAVLQGRLLRSHSLHYLFMGASEQDLGLSLFEALGYVDDQLFVFYDHESRRVEPRTPWVSSRISSQMWLQLSQSLKGWDHMFTVDFWTIMENHNHSKESHTLQVILGCEMQEDASTEGYWKYGYDGQDHLEFCPDTLDWRAAEPRAWPTKLEWERHKIRARQNRAYLERDCPAQLQQLLELGRGVLDQQVPPLVKVTHHVTSSVTTLRCRALNYYPQNITMKWLKDKQPMDAKEFEPKDVLPNGDGTYQGWITLAVPPGEEQRYTCQVEHPGLDQPLIVIWEPSPSGTLVIGVISGIAVFVVILFIGILFIILRKRQGSRGAMGHYVLAERE [N130A] | – | disrupting interaction | disrupting interaction | disrupting interaction | decreasing interaction | – | –
3 | MGPRARPALLLLMLLQTAVLQGRLLRSHSLHYLFMGASEQDLGLSLFEALGYVDDQLFVFYDHESRRVEPRTPWVSSRISSQMWLQLSQSLKGWDHMFTVDFWTIMENHAHSKESHTLQVILGCEMQEDNSTEGYWKYGYDGQDHLEFCPDTLDWRAAEPRAWPTKLEWERHKIRARQNRAYLERDCPAQLQQLLELGRGVLDQQVPPLVKVTHHVTSSVTTLRCRALNYYPQNITMKWLKDKQPMDAKEFEPKDVLPNGDGTYQGWITLAVPPGEEQRYTCQVEHPGLDQPLIVIWEPSPSGTLVIGVISGIAVFVVILFIGILFIILRKRQGSRGAMGHYVLAERE [N110A] | – | disrupting interaction | disrupting interaction | disrupting interaction | decreasing interaction | – | –
4 | MGPRARPALLLLMLLQTAVLQGRLLRSHSLHYLFMGASEQDLGLSLFEALGYVDDQLFVFYDHESRRVEPRTPWVSSRISSQMWLQLSQSLKGWDHMFTVDFWTIMENHNHSKESHTLQVILGCEMQEDNSTEGYWKYGYDGQDHLEFCPDTLDWRAAEPRAWPTKLEWERHKIRARQNRAYLERDCPAQLQQLLELGRGVLDQQVPPLVKVTHHVTSSVTTLRCRALNYYPQNITMKWLKDKQPMDAKEFEPKDVLPNGDGTYQGWITLAVPPGEEQRYTYQVEHPGLDQPLIVIWEPSPSGTLVIGVISGIAVFVVILFIGILFIILRKRQGSRGAMGHYVLAERE [C282Y] | – | – | – | – | – | disrupting interaction | disrupting interaction
